Assay results as given in patent publication US12617818 (UNIVERSITY OF NORTH TEXAS, dated 2026).
Primed or numbered codes have the meaning given here. Where no end group is shown, it is not given here. FITC′ = fluorescein isothiocyanate

T1: Cardiac muscle myosin S2 synthetic peptide for GFS, E930del mutant (MYH7 E930del), 35 residues (human, not fully specified)
T1 peptide: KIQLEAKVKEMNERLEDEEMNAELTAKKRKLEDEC

B1: TRITC (tetramethylrhodamine) labeled stabilizing peptide (peptide)
peptide: KKKKKKKKFKAKKKKKK
modifications: also: TRITC label, site not given here
notes: also called labeled Stabilizer; fluorescently labelled stabilizer peptide
B2: Human smooth myosin S2 peptide (MYH11), 21 residues (peptide)
peptide: EMEARLEEEEDRGQQLQAERK
modifications: also: in FRET: FITC on N-terminus of one monomer, terbium-DTPA-cytosine chelate on C-terminal Lys of the other
notes: also called smooth muscle myosin S2^pep
B3: Skeletal muscle myosin S2 synthetic peptide for GFS (MYH2), 36 residues (peptide)
peptide: KIQLEAKIKEVTERAEDEEEINAELTAKKRKLEDEC
B4: Human β-cardiac mutant myosin S2 peptide (E924K), 19 residues (peptide)
peptide: EMNKRLEDEEEMNAELTAK
modifications: also: in FRET: FITC on N-terminus of one monomer, terbium-DTPA-cytosine chelate on C-terminal Lys of the other
notes: E924K already in the entry; also called Cardiac Myosin S2 Mutant, E924K
B5: Stabilizer peptide (peptide)
peptide: KKKKKKKKFKAKKKKKK
notes: also called stabilizing peptide; unlabeled stabilizer
B6: Human β-cardiac myosin S2 peptide, wild-type (MYH7, 19 residues) (peptide)
peptide: EMNERLEDEEEMNAELTAK
modifications: also: in FRET: FITC on N-terminus of one monomer, terbium-DTPA-cytosine chelate on C-terminal Lys of the other
notes: Chemically synthesized; forms a coiled-coil dimer; also called human cardiac myosin S2 peptide; cardiac muscle myosin S2^pep
B7: Cardiac muscle myosin S2 synthetic peptide for GFS (MYH7), 36 residues (peptide)
peptide: KIQLEAKVKEMNERLEDEEEMNAELTAKKRKLEDEC
modifications: also: crosslinked to coverslip or silica bead through iodoacetamide-succinimidyl ester
B8: Human β-cardiac mutant myosin S2 peptide (E930del), 18 residues (peptide)
peptide: EMNERLEDEEMNAELTAK
modifications: also: in FRET: FITC on N-terminus of one monomer, terbium-DTPA-cytosine chelate on C-terminal Lys of the other
notes: Deletion of glutamate 930 already in the entry; also called Edel930; ΔE930
B9: Destabilizer peptide (peptide)
peptide: EMNERLEDEREMKAELTAK
notes: also called destabilizing peptide; unlabeled destabilizer
B10: FITC (fluorescein isothiocyanate) labeled destabilizing peptide (peptide)
peptide: {FITC′}-EMNERLEDEREMKAELTAK
notes: also called labeled Destabilizer; fluorescein labeled destabilizer peptide
B11: Human skeletal myosin S2 peptide (MYH2), 19 residues (peptide)
peptide: EVTERAEDEEEINAELTAK
modifications: also: in FRET: FITC on N-terminus of one monomer, terbium-DTPA-cytosine chelate on C-terminal Lys of the other
notes: also called skeletal muscle myosin S2^pep
B12: Smooth muscle myosin S2 synthetic peptide for GFS (MYH11), 36 residues (peptide)
peptide: KQELEEILHEMEARLEEEEDRGQQLQAERKKMAQQC

Assays:
Rabbit skeletal myosin [1] = target: T2, Rabbit skeletal myosin (rabbit); experiment: 'previously calculated Kd values'; row stands under the IC-50 head for stabilizers, read as labeled stabilizer; method and source of the myosin not stated
T2 construct: mature; also called rabbit whole skeletal myosin; rabbit skeletal myosin S2
T2 sequence (Q28641 whole entry, chain 1 of 3): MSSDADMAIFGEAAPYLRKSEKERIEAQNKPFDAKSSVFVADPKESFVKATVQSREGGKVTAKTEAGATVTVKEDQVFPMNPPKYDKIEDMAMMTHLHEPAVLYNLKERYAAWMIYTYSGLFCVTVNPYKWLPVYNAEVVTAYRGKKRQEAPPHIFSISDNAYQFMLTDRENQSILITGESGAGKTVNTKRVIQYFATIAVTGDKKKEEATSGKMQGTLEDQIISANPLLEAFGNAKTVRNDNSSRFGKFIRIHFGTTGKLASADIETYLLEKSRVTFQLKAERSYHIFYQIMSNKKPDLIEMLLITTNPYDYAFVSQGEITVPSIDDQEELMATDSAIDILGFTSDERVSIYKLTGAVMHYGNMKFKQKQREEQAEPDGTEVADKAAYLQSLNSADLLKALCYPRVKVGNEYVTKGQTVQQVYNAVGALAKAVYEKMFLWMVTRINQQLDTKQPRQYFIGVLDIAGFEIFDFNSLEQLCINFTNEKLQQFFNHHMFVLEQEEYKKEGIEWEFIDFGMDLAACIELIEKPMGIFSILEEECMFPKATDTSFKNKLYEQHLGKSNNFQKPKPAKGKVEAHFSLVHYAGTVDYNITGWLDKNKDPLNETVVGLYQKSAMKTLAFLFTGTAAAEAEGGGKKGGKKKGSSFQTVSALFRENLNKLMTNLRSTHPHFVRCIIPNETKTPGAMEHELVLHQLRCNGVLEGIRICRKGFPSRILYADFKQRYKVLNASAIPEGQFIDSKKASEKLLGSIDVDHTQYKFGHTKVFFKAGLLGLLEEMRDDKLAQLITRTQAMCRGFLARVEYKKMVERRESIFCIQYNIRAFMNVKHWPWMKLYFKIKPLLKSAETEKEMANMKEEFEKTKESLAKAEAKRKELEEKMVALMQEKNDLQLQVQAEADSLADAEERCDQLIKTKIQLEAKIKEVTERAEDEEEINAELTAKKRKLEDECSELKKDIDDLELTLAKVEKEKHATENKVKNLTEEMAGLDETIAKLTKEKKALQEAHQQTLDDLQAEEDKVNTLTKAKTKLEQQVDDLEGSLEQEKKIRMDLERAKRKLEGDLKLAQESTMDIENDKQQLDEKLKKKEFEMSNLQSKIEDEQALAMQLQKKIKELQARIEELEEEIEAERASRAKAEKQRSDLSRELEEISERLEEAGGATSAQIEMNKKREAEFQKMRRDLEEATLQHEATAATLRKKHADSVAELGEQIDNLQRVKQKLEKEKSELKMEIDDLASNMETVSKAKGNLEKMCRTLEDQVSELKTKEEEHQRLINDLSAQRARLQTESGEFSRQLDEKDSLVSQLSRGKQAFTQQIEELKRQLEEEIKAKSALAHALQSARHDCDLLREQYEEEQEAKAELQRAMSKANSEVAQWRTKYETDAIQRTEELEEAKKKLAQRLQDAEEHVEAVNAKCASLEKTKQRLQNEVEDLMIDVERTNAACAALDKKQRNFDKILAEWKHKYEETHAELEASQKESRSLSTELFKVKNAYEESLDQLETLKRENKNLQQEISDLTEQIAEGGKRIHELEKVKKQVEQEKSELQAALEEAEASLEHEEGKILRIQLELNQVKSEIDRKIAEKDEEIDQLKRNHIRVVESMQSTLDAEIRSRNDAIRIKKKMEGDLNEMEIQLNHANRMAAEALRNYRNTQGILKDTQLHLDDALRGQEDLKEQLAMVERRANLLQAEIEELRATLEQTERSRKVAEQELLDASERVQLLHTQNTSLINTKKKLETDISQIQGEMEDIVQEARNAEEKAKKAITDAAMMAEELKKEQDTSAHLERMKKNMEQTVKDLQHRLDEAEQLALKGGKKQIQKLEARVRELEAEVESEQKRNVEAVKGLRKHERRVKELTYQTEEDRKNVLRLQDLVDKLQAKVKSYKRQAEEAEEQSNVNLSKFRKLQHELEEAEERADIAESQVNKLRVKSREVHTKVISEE
T2 sequence (P02602 2-192, chain 2 of 3, further chain): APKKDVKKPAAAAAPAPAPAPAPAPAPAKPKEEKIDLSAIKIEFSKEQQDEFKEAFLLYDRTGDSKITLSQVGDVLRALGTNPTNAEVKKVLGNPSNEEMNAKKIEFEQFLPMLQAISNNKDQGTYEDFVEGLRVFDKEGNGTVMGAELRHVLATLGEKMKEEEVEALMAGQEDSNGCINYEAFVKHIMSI
T2 sequence (P02608 2-170, chain 3 of 3, further chain): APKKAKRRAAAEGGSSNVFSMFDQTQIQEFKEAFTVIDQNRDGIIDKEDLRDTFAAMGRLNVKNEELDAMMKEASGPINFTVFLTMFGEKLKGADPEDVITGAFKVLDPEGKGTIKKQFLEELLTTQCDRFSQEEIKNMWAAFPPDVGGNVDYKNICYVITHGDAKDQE

[2] = target: the molecule itself; experiment: FRET donor lifetime on dilution of donor- and acceptor-labelled peptide; dissociation of the S2 peptide coiled-coil dimer (control)
[3] = target: the molecule itself; experiment: cell-based or functional assay
[4] = target: the molecule itself; experiment: FRET, dimer dissociation (control); text value differs from Table 3
[5] = target: B6; experiment: competitive ELISA (curve fit of OD), printed as 'binding efficiency'; antibody 1:64, 62.5 nM S2 peptide, stabilizer 0 to 250 nM, rabbit skeletal myosin coated
Description: (§1) Unbound protein complexes are washed off by PBS and blocking buffer. Enzyme conjugated secondary antibody is added to the wells and allowed to conjugate for an hour. After washing with detergent buffer, color developing substrate BCIP is added and development of color in the wells is recorded. The video is analyzed by Image J to get the OD in the wells.

[6] = target: B11; experiment: FRET donor lifetime of 0.1 µM labelled S2 peptide dimer titrated with stabilizer
[7] = target: B4; experiment: as above
[8] = target: B8; experiment: as above
[9] = target: B6; experiment: FRET donor lifetime of labelled S2 peptide dimer titrated with stabilizer
Text: (§2) Donor probe was conjugated to C-terminus of a myosin S2 peptide monomer and acceptor probe was conjugated to N-terminus of another myosin S2 peptide. In FRET as lanthanide of the donor probe decays, energy goes to fluorescein and it emits out energy in form of light. In addition, as the monomers come closer to each other, lifetime of donor decreases indicating a decrease in distance between donor and acceptor probe; an opposite effect is observed, with an increase in distance between the probes, […]. Lifetime of donor probe was measured in milliseconds.
(§3) During FRET assay, cardiac muscle myosin S2^pep was treated with increasing concentrations of anti-S2 peptides. […] Dilution to decrease the concentration of dimer cardiac muscle myosin S2^pep was performed to measure binding affinity of coiled-coil peptide and in turn to measure minimal concentration for stable dimer formation (FIG. 25A). […] (FIG. 25B)

[10] = target: B7; experiment: cell-based or functional assay
[11] = target: B12; experiment: cell-based or functional assay
[12] = target: B3; experiment: cell-based or functional assay
[13] = target: T1, Cardiac muscle myosin S2 synthetic …; experiment: cell-based or functional assay
[14] = target: B6; experiment: competitive ELISA, printed as 'binding constant'; differs from 1.37 nM at paragraph 347
Description: as §1

Rabbit skeletal myosin [15] = target: T2, Rabbit skeletal myosin; experiment: 'previously calculated Kd values'; row stands under the IC-50 head for stabilizers, read as unlabeled stabilizer; method and source of the myosin not stated
[16] = target: B6; experiment: competitive ELISA, printed as 'binding efficiency'
Description: as §1

[17] = target: B2; experiment: FRET donor lifetime of the labelled smooth muscle S2 peptide dimer titrated with the peptide
Text: as §2
The specificity of peptides were later tested on the myosin S2 of the smooth muscle (MYH11). […] Smooth muscle myosin S2^pep was treated with different concentrations of anti-S2 peptides.

[18] = target: B4; experiment: FRET donor lifetime of 0.1 µM labelled dimer titrated with stabilizer; text value and unit differ from Table 3
Text: as §2

[19] = target: B7; experiment: cell-based or functional assay
[20] = target: B3; experiment: cell-based or functional assay
[21] = target: T1, Cardiac muscle myosin S2 synthetic …; experiment: cell-based or functional assay
Rabbit skeletal myosin [22] = target: T2, Rabbit skeletal myosin; experiment: cell-based or functional assay
[23] = target: B6; experiment: competitive ELISA (FIG. 44); differs from 6 nM at paragraph 385
Description: (§4) The assay began with coating 96 well microtiter plate with rabbit skeletal myosin molecule overnight. […] After incubation at room temperature for an hour, the unbound protein complexes were washed with PBS and blocking buffer. Enzyme conjugated secondary antibody were added on to the wells and allowed conjugate for an hour at room temperature. After washing the wells with detergent buffer, color developing BCIP substrate were added on to the wells. Images of the color developed in the wells were captured and analyzed in Image J.

Rabbit skeletal myosin [24] = target: T2, Rabbit skeletal myosin; experiment: 'previously calculated Kd values, concentrations at which half of myosin is saturated'; method and source of the myosin not stated
[25] = target: B6; experiment: competitive ELISA (curve fit of OD, FIG. 44B); antibody 1:64, 62.5 nM human cardiac S2 peptide, rabbit skeletal myosin coated; the sentence does not name the target
Description: as §4

[26] = target: B6; experiment: FRET donor lifetime of labelled S2 peptide dimer titrated with destabilizer
Text: as §2, §3

[27] = target: B11; experiment: FRET donor lifetime of 2 µM labelled S2 peptide dimer titrated with destabilizer
Text: as §2
Like cardiac muscle myosin S2^pep, dilution by decreasing the concentration of dimer skeletal muscle myosin S2^pep was performed and further was treated with different concentrations of anti-S2 peptides (FIG. 28A, 28B). Different concentrations of dimer skeletal muscle myosin S2^pep was used with anti-S2 peptides.

Binder: B1
Kd (Rabbit skeletal myosin [1]): 0.33 µM

Binder: B2
Kd [2]: 0.302 µM

Binder: B3
GFS: force to uncoil the S2 peptide dimer to a length of 10 nm, no anti-S2 peptide (control) [3]: 0.45 pN

Binder: B4
Kd [2]: 0.942 µM
Kd [4]: 2.54 µM

Binder: B5
Kd [5]: 0.00137 µM
Kd [6]: 0.0197 µM
Kd [7]: 0.034 µM
Kd [8]: 0.238 µM
Kd [9]: 0.0212 µM
GFS: force to uncoil the S2 peptide dimer to a length of 10 nm, with stabilizer [10]: 1.55 pN
GFS: force to uncoil the S2 peptide dimer to a length of 10 nm, with stabilizer [11]: 0.496 pN
GFS: force to uncoil the S2 peptide dimer to a length of 10 nm, with stabilizer [12]: 0.628 pN
GFS: force to uncoil the S2 peptide dimer to a length of 10 nm, with stabilizer [13]: 1.07 pN
Kd [14]: 0.00138 µM
Kd (Rabbit skeletal myosin [15]): 0.006 µM
Kd [16]: 0.001 µM
binding result [17]: no binding
Kd [18]: 36200 µM
GFS: fold increase of the force required to uncoil the coiled coil against control [19]: 1.8 times
GFS: fold increase of the force required to uncoil the coiled coil against control [20]: 1.4 times
GFS: fold increase of the force required to uncoil the coiled coil against control [21]: 2.6 times
GFS: fold of force required to uncoil myosin in presence of stabilizer against control (Rabbit skeletal myosin [22]): 1.5 times

Binder: B6
Kd [2]: 0.303 µM
Kd [4]: 0.308 µM

Binder: B7
GFS: force to uncoil the S2 peptide dimer to a length of 10 nm, no anti-S2 peptide (control) [3]: 0.863 pN

Binder: B8
Kd [2]: 1.11 µM
Kd [4]: 3.24 µM

Binder: B9
Kd [23]: 0.001 µM
GFS: force to uncoil the S2 peptide dimer to a length of 10 nm, with destabilizer [10]: 0.436 pN
GFS: force to uncoil the S2 peptide dimer to a length of 10 nm, with destabilizer [11]: 0.451 pN
GFS: force to uncoil the S2 peptide dimer to a length of 10 nm, with destabilizer [12]: 0.184 pN
Kd (Rabbit skeletal myosin [24]): 0.075 µM
Kd [25]: 0.006 µM
Kd [26]: 1.33 µM
binding result [17]: no binding
Kd [27]: 0.469 µM
GFS: fold decrease of the force required to uncoil the coiled coil against control [19]: 1.98 times
GFS: fold decrease of the force required to uncoil the coiled coil against control [20]: 2.45 times
GFS: fold less force required to uncoil myosin in presence of destabilizer against control (Rabbit skeletal myosin [22]): 1.6 times

Binder: B10
Kd (Rabbit skeletal myosin [24]): 0.176 µM

Binder: B11
Kd [2]: 0.341 µM

Binder: B12
GFS: force to uncoil the S2 peptide dimer to a length of 10 nm, no anti-S2 peptide (control) [3]: 0.461 pN
